Test results as given in patent US6143719A, “Bradykinin analogs as selective thrombin inhibitors” (The Regents of the University of Michigan, priority 1996, dated 2000).
Each block holds one molecule with its values, some of them ahead of it.

How the values were obtained:
[1] = water solubility of synthesized peptides; format: physicochemical
human platelets = format: cell-based; details: FIG. 2, concentration not given
Method: The cytoplasmic free Ca^2+ concentration ([Ca^2+ ]i) was measured using the fluorescent Ca^2 + indicator fura-2 (Molecular Probes, Inc., Eugene, Oreg.). Gel filtered platelets in Hepes-Tyrode's buffer were loaded with fura-2 by incubation at 37° C. with 1 μM fura-2/acetoxymethyl ester for 45 min according to the method of Rasmussen et al., J. Biol. Chem. 268, 14322 (1993). The labeled platelets were then re-gel filtered to remove any excess probe. Aliquots of the labeled platelet suspension were transferred into a quartz cuvette with a magnetic stirrer, which was then placed in a thermostatically controlled chamber at 37° C. in a fluorescence spectrophotometer (Dual Wave Length Shimazdu SP5000 Spectrofluorometer, Shimazdu USA, Pittsburgh, Pa.). Reagents were directly added to the cuvette. The excitation wave lengths varied between 340 and 380 nm. The fluorescence was measured by recording emitted light at 510 nm as reported by Fisher et al, Mol. Pharm. 35, 195 (1989). The minimum emission was determined on a 20 mM digitonin, 10 mM EGTA solubilized platelet sample; maximum emission was determined on the same sample with 10 mM Ca^2+ added. The intraplatelet free Ca^2+ concentration was calculated by the method of Grykiewicz et al., J. Biol. Chem. 260, 3440 (1985). The ratio of the fluorescence readings was calculated as R=340/380 nm and processed according to the equation [Ca^2+ ]i =KD ((R-Rmin)/Rmax -R))(Sf2 /Sb2) to determine the intraplatelet free Ca^2+ concentration. The KD for fura-2 was assumed to be 224 nM. Rmax and Rmin are the maximum and minimum fluorescence ratios measured at the end of the experiment, respectively; Sf2 and Sb2 are the fluorescence values at 380 nm in the absence and presence of saturating [Ca^2+ ], respectively.

α-thrombin = α-thrombin (Homo sapiens, UniProt P00734); assay: α-thrombin cleavage of thrombin receptor peptide NAT12 (HPLC); format: biochemical; design: cleavage product peak 3, share of NAT12 peak 1 area / cleavage product peak 2, share of NAT12 peak 1 area: dose or concentration left out as unconfirmed
Method: A further study was performed to determine whether BK analogs prevent α-thrombin from cleaving the thrombin receptor reported by Vu et al., Cell 64, 1057 (1991). A peptide, NAT12 (SEQ ID NO:2), which spans amino acids […] of the α-thrombin cleavage site on the thrombin receptor, was used to determine whether the BK analogs described herein blocked α-thrombin cleavage of the cloned receptor.
The cleavage study was performed according to the method of Molino et al., J. Biol. Chem. 270,11168(1995),inwhichNAT12(SEQ ID NO:2) was dissolved in a solution of 0.01 M NaH2 PO4 and 0.15 M NaCl, pH 7.4. […] Following incubation, each mixture was separated by applying the mixture to a Vyadec C-18 HPLC column in 0.1% trifluoroacetic acid and eluting the mixture with a gradient from 0% to 100% of 80% MeCN and 0.1% trifluoroacetic acid. The size of the separated products were confirmed by mass spectrometry.

washed platelets = assay: 125I-α-thrombin binding to platelets; design: species or system human; details: 200 nM HK
Method: Gel filtered platelets were placed into polypropylene tubes and diluted with Hepes-Tyrode's buffer, containing 2 mM CaCl2 and 50 μM ZnCl2 and additions, to a final concentration of 2×10^8 platelets/ml. The reaction was started by the addition of 1 nM ^125 I-α-thrombin, which was prepared by using the iodogen technique as reported by Meloni et al., J. Biol. Chem. 266, 6786 (1991). Incubations were performed at 37° C. for specified times with various additions. After incubation, 50 μl aliquots were removed in triplicate for each experimental point and placed in polypropylene microcentrifuge tubes with an extended tip containing 200 μl of an oil mixture which consisted of 1 part Apiezon A oil to 9 parts of n-butylphthalate (Gustafson et al., J. Clin. Invest. 78, 810 (1986)), and centrifuged at room temperature for 2 min at 10,900× g in a microcentrifuge. (Model E, Beckman Instruments, Palo Alto, Calif.) The supernatant was removed and the tips amputated for placement in the gamma counter. The radioactivity present in the cell pellet was determined with an LKB Rack Gamma Counter (LKB Instruments, Inc., Gaithersburg, Md.). Nonspecific binding was measured in the presence of a 100-fold molar excess of α-thrombin.

[2] = procoagulant activity of purified HK; design: species or system human; details: HK purified from plasma
Method: HK was purified from plasma by a modification of the procedures of Johnson et al., Thromb. Res. 48, 187 (1987) and Muller-Esterl et al., Methods Enzymol 163, 240 (1987). One hundred ml of 1 mM DFP-treated fresh frozen plasma was thawed at 37° C., to which 10 mM benzamidine-HCI, 40 μg/ml Polybrene, 2 mM EDTA, 0.2 mM PMSF, 0.2 mg/ml soybean trypsin inhibitor, 100 U/ml aprotinin and 2 M NaCl were added according to the method of Schmaier et al., Methods in Enzymology 169, 276 (1989). The treated plasma was then applied to a 2.5×20 cm column of CM-papain-SEPHAROSE 4B equilibrated in 50 mM phosphate buffer containing 2 M NaCl, 1 mM benzamidine-HCl, 40 μg/mL Polybrene, 0.2 mM PMSF, 0.02% (w/v) NaN3, pH 7.5. The CM-papain-SEPHAROSE 4B column was prepared by the procedure of Johnson et al., Thromb Res. 48, 187 (1987). HK and LK were eluted in a single peak after the addition of a 50 mM phosphate buffer solution containing 2 mM EDTA and 0.02% (w/v) NaN3, pH 11.5. Five ml fractions were collected into tubes containing 0.25 ml of a solution consisting of 4 mM PMSF in 1 M sodium acetate, pH 4.2 to bring the final pH to 6.0. The fractions containing HK and LK were then applied to a reactive Blue-Sepharose column (Sigma Chemical Corp, St. Louis, Mo.) equilibrated with 0.01 M sodium acetate pH 6.8 by the methods reported by Hasan et al., J. Biol. Chem. 269, 31822 (1994). […]

Molecule: SEQ ID NO:15: synthesized hydrophobic peptide, sequence not printed (NATFYFKIDNVKKARVQVVAGKKYFI)
water solubility [1]: hydrophobic requiring 0.01% DMSO in order to solubilize it

cleavage product peak 2, share of NAT12 peak 1 area (α-thrombin): 14%
cleavage product peak 3, share of NAT12 peak 1 area (α-thrombin): 18%
reduction of NAT12 peak 1 area after α-thrombin (α-thrombin; 8 nM α-thrombin): 32%
B1: HK: human high molecular weight kininogen purified from plasma (protein, UniProt P01042 19-644, looked up)
Kininogen-1: QESQSEEIDCNDKDLFKAVDAALKKYNSQNQSNNQFVLYRITEATKTVGSDTFYSFKYEIKEGDCPVQSGKTWQDCEYKDAAKAATGECTATVGKRSSTKFSVATQTCQITPAEGPVVTAQYDCLGCVHPISTQSPDLEPILRHGIQYFNNNTQHSSLFMLNEVKRAQRQVVAGLNFRITYSIVQTNCSKENFLFLTPDCKSLWNGDTGECTDNAYIDIQLRIASFSQNCDIYPGKDFVQPPTKICVGCPRDIPTNSPELEETLTHTITKLNAENNATFYFKIDNVKKARVQVVAGKKYFIDFVARETTCSKESNEELTESCETKKLGQSLDCNAEVYVVPWEKKIYPTVNCQPLGMISLMKRPPGFSPFRSSRIGEIKEETTVSPPHTSMAPAQDEERDSGKEQGHTRRHDWGHEKQRKHNLGHGHKHERDQGHGHQRGHGLGHGHEQQHGLGHGHKFKLDDDLEHQGGHVLDHGHKHKHGHGHGKHKNKGKKNGKHNGWKTEHLASSSEDSTTPSAQTQEKTEGPTPIPSLAKPGVTVTFSDFQDSDLIATMMPPISPAPIQSDDDWIPDIQIDPNGLSFNPISDFPDTTSPKCPGRPWKSVSEINPTTQMKESYYFDLTDGLS
modifications: high molecular weight kininogen
inhibition of α-thrombin-induced calcium mobilization (human platelets): inhibited
inhibition of 125I-α-thrombin binding to platelets (washed platelets): able to inhibit
specific activity (procoagulant activity) [2]: 11-22 U/mg
